Data as given in the nanobody polyreactivity screen of Harvey et al. (2022).

experiment: yeast display, Sf9 membrane polyspecificity reagent, FACS + sequencing; frameworks hold sequencing errors
How it was run: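 Nanobodies came from a synthetic yeast display library in Saccharomyces cerevisiae BJ5465, induced with galactose for 36–48 hours and stained for 1 hour at 4 °C with 10% biotinylated, detergent-solubilized Sf9 membrane reagent. Cells were enriched on streptavidin microbeads and then FACS-sorted, with low and high (top ~1%) gates set on anti-HA fluorescence for expression and streptavidin fluorescence for reagent binding. Each polyreactivity label reflects the gate a clone came from. Genes were amplified by colony PCR, sequenced by MiSeq 2 × 250 and filtered by CDR length.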

| Sequence | polyreactivity (PSR sort gate) |
| --- | --- |
| QGQLVESGGGLVQAGGSLRLSCAPSGSTVWVNVMGCYSPARGKERELVAAIDSGGSTYYADSVKGRFTISRDKAKNTVYLQMISLKPEDTAVYYCNARVDTPSPYDYWGQGTQVTVSS | low polyreactivity |
| QGQLVESGGGLVQAGGSLRLSSAASGSTFVYAMGWYRQAPGKERVLVASISWSDSSTYYADSVKGRFTISRDNAKNTVYLQMNSQKREDTAVYYGYADQGTRDSDYWGQGTQGTVSS | low polyreactivity |
| QGQLVESGGGLVQAGGSRRLSCAASGFIYFNAMGWSRQAPGKEREMVASISYSGGSTYYADSVKGRFTISRDNAKNTVYLQMNSLKPEDTAVYYCAKAFIEPGYKYDSWGQGTQVTVSS | high polyreactivity |
| QGQLVESGGGLVQEGGILHLTCAASGRIFCYYDMGWSRQEPGKERELVAAISRSGGSTYYADSVKGRFTISRDNAKNTVYLQMNSLKPEDTAVYYCAAEYYGFSWAGYYYWGQGTQVTVSS | high polyreactivity |
| QGQLVESWGGLVQAGGSLRLSCAASGSTFCDYAMGWYRQAPGQERELVAAIDWSDGSTYYADSVKGRFTSSRDNAKNTGYLQMNSLKPEDTAVYYCAAEQWYGMYYWGQGTQVTVSS | high polyreactivity |
| QGQLVETGGGLVQAGGSLRLSCAASGSTFSYYAMGWYRQAPGKEREWVAAISRRGGSTYYADSVKGRFTISRDNAKNTVYLQMISLKPEDTAVNYCAADDYYSSRIEYYNWGQGTQVTVSS | high polyreactivity |
| QGQRVESGGGLGQAGGSLRISCAASGLTFHRYAMGWYRQAQGKETELVAAINYSGGRTYYADSVKGRFTISRDNAKYTVYFQMNSLKPEDTAVYYCNVARWGNIPVGEYDYWGQGTQVTVSS | high polyreactivity |
| QGQRVESGGGLVQAGGSLLLSCAASGLTFAKYAMGWDRQAPGKERELVSTITWSGATTYYADSVKGRFTISRDYAKNTVYLQMNSLKPEDTAVYYCIADLPVYVDYIIGGYGYWGQGTQVTVSS | low polyreactivity |
| QGQRVESGGGLVQAGGSLRLSCAASGFIFWDYDMVWYRQAPGKEREMVAAISDSGGDTYYADSVKGRFTISRDNSKNTVYLQMHSLKREDTAVIYCAADVELWVFRGQQFDYWGQGTQVTVSS | low polyreactivity |
| QGQRVESGGGLVQAGGSLRLSCAASGLIFSRYGMGWYRPARGKDRELVAAISGGGGSTYYADSVKGRFTISRDNAKNTVYLEMNSLKPEDTAVYYCARKYTRKIPASDYWGQGTQVTVSS | high polyreactivity |
| QGQRVESGGVLVQAGGSLRLRCAASGSTFSRYDMGWYRQAPGKERELVATITRAGRTYYADSVKGRFTISRDNAKNTVYLQMNSLIPEDTAVYYCAAELYYWTYVRFDYWGQGTQVTVSS | low polyreactivity |
| QHQLEESGGGLVQAGGSLRLSFAAYGFIFGRYTMGWYRQAPVKERELVAAISSRGGSTYYADSVKGGFTISRDYAKYTVYLQMNSLNPEDTAVYSCNALRRPSSEGRDYWGQGTQVTVSS | high polyreactivity |
| QHQLVESGAALVQAGGSLLVICAASVFTFPFYTMGWYRQAPGKEMELVAAISTSGAGTYYAESVKGRFTISRDNAKNTVYLQMNSLKTEDTAVYYCAAYKRGRREMDYWGQGTQVTVSS | high polyreactivity |
| QHQLVESGGGLFQAGGSLRLSCAPSGSIIVWNAMGWYRQAPGKERELVASMTSGASTYYADSGKGRVTISRDNAKNTVYLQMNSLKPEDTAVYYCAAYYGYTDGWYLYSGYNYWGQGTQVTVSS | low polyreactivity |
| QLHLVESGGGLVQAGGSLRLSCAASGRIFFYAMGWYRQAPGKERDLVASITTSGTSTYYADSVKGRFTISRDNSKNTVYLEMNSLKPEDTSVYYCNATSNSIRWYDFYYWGQGTQVTVSS | low polyreactivity |
| QLQHVESGGCLVQAGASLRLSCAASRLIFFYYAMGWSRQAPGKERELVAAIRTNYADSVKGRITSSRDNAKNTVYLQMNSQKPEDTAVYYCAAESSQSPTSAFDYWGQGTQVTVSA | low polyreactivity |
| QLQHVESGGGLVQAGGSLRLSCADSGFILYLNAMGWYRQAPGKERELVATITNRGGSTYYADTVKGRFTISRDNAKNTVYLQMNSLKPEDTAVYYCAARTRERYSKPYFYRRFGYWGQGTQVTVSS | low polyreactivity |
| QLQHVESGGGLVQAGGSLRLTCAASGYTYHGYAMGWYRQAPGKERELVAVITQRGGSTSYADSVKGSFTISRDYAKNNVNLQMKSLKPVDTAVYYCNDSAWLVVARTRYGYWGQGTQVTVSS | low polyreactivity |
| QLQLEESGGGLVQAGGTLRISCEASGSTFRPYAMGAYRKAPGQEREMVARITGSGDSTYYADSVKGRFTISRDNAQNTVYLQMNSLKPEDNAVYYCARDFDYSLSGFEYWGQGTQVTVSS | low polyreactivity |
| QLQLLESDGGLVQAGVSLRLSCATSAMTISRYTMGWYRQAPGKARELVAVITYRGGSTYYADSVKGRFTISRDNAKNTVYLQMNSLKPEDTAVYYCAAGRRTYGLTYDYWGQGTQVTVSS | high polyreactivity |
| QLQLQESGGGLVQAGGSLRLSCAASAFIFARNYMGWYRQAPGKERELVAGIGVGASTNYADSVKGRFTISRDNAKNTVYLQMNSLEPEDTAVYYCAVGDTVLGYHYYWGQGTQVTVSN | low polyreactivity |
| QLQLQESVGGLVQAGGSLRLSCAAIGNIFPTDRMGWYSQSPGKELEFVATISHGGSTNNADSVKGRFTISRDNGKNTVYLKMNSLKPEVTAVYYCAVWSLGRWRNYYWGQGSQVTVSS | low polyreactivity |
| QLQLVDSGGGLVQAGGSLRLSCAATGFTFYYYVMGWYRQAPGKETELVAAISSRGGSTYYADSVKGRFTISRDNAKNTVYLQMNSLKPEDTAVYYCAATYWPYRPGYYYWGQGTQVTVSS | high polyreactivity |
| QLQLVESGAGLVQAGGSLRLSCAASGRIFAYNTMGRYRQAHGKERELVAVITSGGSTNYADYVKGRFTISRDNAKNTVYLQMNSLKPEDTAVYYCAKRPYGGSGGYRYDYWGQGTQVTVSS | high polyreactivity |
| QLQLVESGGGIVQAGGSLRLSCAASGSIFPYNAMGWYRQAPGKEREFVAAINLSGGSTNYADSVKGRFTISRDNANYTFYLQMNSLKPEDTAVYYCNAPVVYFLPLNFDYWGQGTKVTVSS | low polyreactivity |
| QLQLVESGGGLDQAGCSLRLSCAASRTIITRNAMGWYRPAPGKESELVASINSGGSTYYADSVKGRFTISRDNAKNTVYLQMNSLKPDDTAVYYCAVEEDRYYYDDYDYWGQGTQVTVSS | low polyreactivity |
| QLQLVESGGGLDQAGGSLRLSCAASGSIFPGYAMGWYRQAPGKESELVATITWSGGSTYYADSVKGRFTISRDNAKNTVYLQMNSLKPEDTAVYYCNADSNWYYQWNYYGLYDYWGQGTQVTVSS | low polyreactivity |
| QLQLVESGGGLGQSGGSIRLSCAASGFIFPVYTMGRSRQAPGKERELVAAITQIGGSTHYADSVKGRFTISRDNAKNTVYLQMNSLKPEDTAVYYCNAVPSYGTEYDYWGQGTQVTVSS | low polyreactivity |
| QLQLVESGGGLLQAGGSLRLSCAASGSTFVSNAMGWYRQAPGKERELVATITTSGGSTYYADSVKGRFRNSRDNAKTTVYLQMNSLNPEDTAVYYCNAVYLFCYSGDLDYWGQGTQVTVSS | low polyreactivity |
| QLQLVESGGGLVKAGGSLRLSCAASGFIFNCYAMGWNRQAPVKEREMVARISRSGGSTYYADSVKGRFTISRDNAKNTVYLQMNSLKPEDTAVYYCAADYYWSLHQRMDYWGQGTQVTVSS | high polyreactivity |
